Results as given in patent US5985836A, “Alpha-1 proteinase inhibitor binding peptides” (Bayer Corporation, priority 1998, dated 1999).
Ends that are not written are not given here.

Assays:
[1] = target: T1, A1PI (Homo sapiens, UniProt P01009); assay: A1PI binding on peptide-resin column, injection of 1 mg A1PI in equilibration buffer; details: 1 mg A1PI in equilibration buffer
T1 construct: Human plasma is currently the only approved source of therapeutic AlPI
In short: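 Peptides synthesized on A-Totda-Toyopearl chelate resin (0.1 mmole/g) packed in 0.4×5 cm columns; 1 mg A1PI injected in equilibration buffer at 4 °C or 20 °C, 865 or 523 μl/min. Flowthrough, 1M/3M NaCl washes and 2% acetic acid eluate quantified by A280 or immunonephelometry as percent of total eluted.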

[2] = target: T1, A1PI; assay: A1PI purification from 5 mg hSA + 1 mg A1PI on peptide column, A1PI mass balance; format: binding; details: A1PI, 5 mg hSA + 1 mg A1PI; for Percent Eluted by Fraction, 1M NaCl / Percent Eluted by Fraction, 2% Ac. Acid / Percent Eluted by Fraction, 3M NaCl / Percent Eluted by Fraction, Flow: relative to total eluted
In short: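 Peptides on A-Totda-Toyopearl resin (0.1 mmole/g) in 0.4×5 cm columns; 5 mg hSA + 1 mg A1PI loaded at 4 °C or 20 °C with 10 min residence (17 μl/min). Steps of 1M and 3M NaCl, then 2% acetic acid; fractions quantified by immunonephelometry for mass balance.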

[3] = target: T1, A1PI; assay: Purification of A1PI from Effluent II+III on peptide column, A1PI mass balance; format: binding; details: A1PI, 1 ml Eff. II+III, 4° C.
In short: (§1)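 Run at 4° C: Effluent II+III (1 ml, 20% ethanol) loaded with a 10 min residence. Elution at 865 μl/min, in sequence 1M NaCl, 3M NaCl, 2% acetic acid; A1PI, IgA, IgG and haptoglobin accounted for in each fraction.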

[4] = target: T2, apolipoprotein alpha-1 (Apo A-1) (Homo sapiens, UniProt P02647); assay: Purification from Effluent II+III, Apo A-1 mass balance; format: binding; details: 1 ml Eff. II+III, 4° C.
T2 construct: Eff; II+III is a process intermediate in the Cohn plasma fractionation process; tissue Bayer Corporation (Clayton, N.C.); host or cells: plasma fraction: Cohn Effluent II+III
In short: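 Mass balance per protein was determined over the load and each step eluate (1M NaCl, 3M NaCl, 2% acetic acid) of peptide columns challenged with 1 ml Effluent II+III. The feed contained 20% ethanol and 20-25 mg/ml hSA, the flow was 865 μl/min after a 10 min residence, and the temperature was 4° C.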

[5] = system: Immunoglobulin A (IgA); assay: Purification from Effluent II+III, IgA mass balance; format: binding, human; details: 1 ml Eff. II+III, 4° C.
In short: as §1

[6] = system: Immunoglobulin G (IgG); assay: Purification from Effluent II+III, IgG mass balance; format: binding, human; details: 1 ml Eff. II+III, 4° C.
In short: as §1

[7] = system: haptoglobin (Hpt); assay: Purification from Effluent II+III, haptoglobin mass balance; format: binding, human; details: 1 ml Eff. II+III, 4° C.
Experimental: Sequences 1-11 and 15 were assayed with Effluent II+III (Eff. II+III). Eff. II+III is a process intermediate in the Cohn plasma fractionation process. The feed stream contains 20% (by volume) ethanol, 20-25 mg/ml hSA and approximately 1 mg/ml AlPI. The stream also contains other proteins including anti-thrombin III (AT3), immunoglobin G (IgG), immunoglobin A (IgA), apolipoprotein alpha-1 (Apo A-1), transferrin (Trf), haptoglobin (Hpt), and alpha-1 acid glycoprotein (AAG) at concentrations ranging from 0.1-1 mg/ml.
The columns were assayed using the same technique as the hSA+AlPI experiments, allowing for a 10 minute residence time followed by a constant flow rate of 865 μl/min with step elutions of 1M NaCl, 3M NaCl, and 2% acetic acid. All experiments were conducted at 4° C. The mass balances for the injection of 1 ml Eff. […] The AlPI was enriched from 3% of the total protein in the feed to upwards of 50% in the acid eluate.

[8] = target: T1, A1PI; assay: Capture and elution of active A1PI with 2M urea buffer (elastase inhibition activity assay and immunonephelometry); format: binding; details: 4° C.
[9] = 20° C., * Below detection limit
[10] = * as in Tables 4, 5 (below detection limit)

T1 sequence (P01009 25-418): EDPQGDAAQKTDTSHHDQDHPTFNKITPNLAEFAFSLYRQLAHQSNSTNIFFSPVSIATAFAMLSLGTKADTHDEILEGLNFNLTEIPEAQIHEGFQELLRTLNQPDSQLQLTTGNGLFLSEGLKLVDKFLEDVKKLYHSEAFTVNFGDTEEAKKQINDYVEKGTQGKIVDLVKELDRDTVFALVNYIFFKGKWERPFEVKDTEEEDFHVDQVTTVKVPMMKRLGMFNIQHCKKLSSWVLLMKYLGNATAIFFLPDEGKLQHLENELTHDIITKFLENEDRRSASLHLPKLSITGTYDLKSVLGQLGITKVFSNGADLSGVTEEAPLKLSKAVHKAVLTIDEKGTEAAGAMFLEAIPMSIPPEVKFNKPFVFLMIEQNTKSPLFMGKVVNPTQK
T2 sequence (P02647 19-267): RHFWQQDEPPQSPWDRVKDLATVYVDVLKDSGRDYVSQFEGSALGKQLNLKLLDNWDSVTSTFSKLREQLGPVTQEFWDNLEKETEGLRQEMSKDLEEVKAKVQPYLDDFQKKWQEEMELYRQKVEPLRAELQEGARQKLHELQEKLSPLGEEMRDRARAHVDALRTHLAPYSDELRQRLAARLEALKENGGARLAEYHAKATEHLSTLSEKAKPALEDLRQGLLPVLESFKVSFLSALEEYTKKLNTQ

**Q.** What does the source list for LIVHRW?
**A.** Percent A1PI Eluted by Fraction Based on Absorbance at 280 nm, 1M NaCl ([1]; 4° C.): 74%; Percent A1PI Eluted by Fraction Based on Absorbance at 280 nm, 2% Acetic Acid ([1]; 4° C.): 26%; Percent A1PI Eluted by Fraction Based on Absorbance at 280 nm, Flowthrough ([1]; 4° C.): 0%; Percent A1PI Eluted by Fraction, 1M NaCl ([1]; 20° C.): 64%; Percent A1PI Eluted by Fraction, 2% Acetic Acid ([1]; 20° C.): 36%; Percent A1PI Eluted by Fraction, Flowthrough ([1]; 20° C.): 0%; Mass Protein per Eluate Fraction, 1M NaCl ([2]; 4° C., * Below detection limit): 0.40 mg; Mass Protein per Eluate Fraction, 2% Ac. Acid ([2]; 4° C., * Below detection limit): 0.24 mg; Percent Eluted by Fraction, 1M NaCl ([2]; 4° C.): 62%; Percent Eluted by Fraction, 2% Ac. Acid ([2]; 4° C.): 38%; Percent Eluted by Fraction, 3M NaCl ([2]; 4° C.): 0%; Percent Eluted by Fraction, Flow ([2]; 4° C.): 0%; Mass Protein per Eluate Fraction, 1M NaCl [2, 9]: 0.15 mg; Mass Protein per Eluate Fraction, 2% Ac. Acid [2, 9]: 0.37 mg; Mass Protein per Eluate Fraction, Flow [2, 9]: 0.34 mg; Percent Eluted by Fraction, 1M NaCl ([2]; 20° C.): 18%; Percent Eluted by Fraction, 2% Ac. Acid ([2]; 20° C.): 43%; Percent Eluted by Fraction, 3M NaCl ([2]; 20° C.): 0%; Percent Eluted by Fraction, Flow ([2]; 20° C.): 39%; Percent Eluted by Fraction, 1M NaCl [3]: 16%; Percent Eluted by Fraction, 2% Acetic Acid [3]: 25%; Percent Eluted by Fraction, 3M NaCl [3]: 0%; Percent Eluted by Fraction, Flow [3]: 59%; Mass Protein per Eluate Fraction, 1M NaCl [3, 10]: 0.20 mg; Mass Protein per Eluate Fraction, 2% Acetic Acid [3, 10]: 0.30 mg; Mass Protein per Eluate Fraction, Flow [3, 10]: 0.71 mg; Percent Eluted by Fraction, 1M NaCl [4]: 0%; Percent Eluted by Fraction, 2% Acetic Acid [4]: 51%; Percent Eluted by Fraction, 3M NaCl [4]: 0%; Percent Eluted by Fraction, Flow [4]: 49%; Mass Protein per Eluate Fraction, 2% Acetic Acid [4, 10]: 0.30 mg; Mass Protein per Eluate Fraction, Flow [4, 10]: 0.28 mg; Percent Eluted by Fraction, 1M NaCl [5]: 43%; Percent Eluted by Fraction, 2% Acetic Acid [5]: 20%; Percent Eluted by Fraction, 3M NaCl [5]: 0%; Percent Eluted by Fraction, Flow [5]: 37%; Mass Protein per Eluate Fraction, 1M NaCl [5, 10]: 0.18 mg; Mass Protein per Eluate Fraction, 2% Acetic Acid [5, 10]: 0.08 mg; Mass Protein per Eluate Fraction, Flow [5, 10]: 0.15 mg; Percent Eluted by Fraction, 1M NaCl [6]: 0%; Percent Eluted by Fraction, 2% Acetic Acid [6]: 0%; Percent Eluted by Fraction, 3M NaCl [6]: 0%; Percent Eluted by Fraction, Flow [6]: 100%; Mass Protein per Eluate Fraction, Flow [6, 10]: 0.31 mg; Percent Eluted by Fraction, 1M NaCl [7]: 40%; Percent Eluted by Fraction, 2% Acetic Acid [7]: 0%; Percent Eluted by Fraction, 3M NaCl [7]: 0%; Percent Eluted by Fraction, Flow [7]: 60%; Mass Protein per Eluate Fraction, 1M NaCl [7, 10]: 0.29 mg; Mass Protein per Eluate Fraction, Flow [7, 10]: 0.43 mg; Mass A1PI in Urea Eluate (mg), Activity ([8]; 1 mg A1PI, eluted with 2M urea, pH 6, elastase inhibition activity assay): 0.75 mg; Mass A1PI in Urea Eluate (mg), Nephelometry ([8]; 1 mg A1PI, eluted with 2M urea, pH 6, immunonephelometry): 0.85 mg; Specific Activity ([8]; mass of A1PI by activity assay relative to immunonephelometry, urea eluate): 0.88 mg/mg
